Source: patent US20220127332A1 (CURA THERAPEUTICS, published 2022)

B1: sTBRII isoform 2 (long) (receptor, UniProt P37173-2 23-191, looked up)
chain: TIPPHVQKSDVEMEAQKDEIICPSCNRTAHPLRHINNDMIVTDNNGAVKFPQLCKFCDVRFSTCDNQKSCMSNCSITSICEKPQEVCVAVWRKNDENITLETVCHDPKLPYHDFILEDAASPKCIMKEKKKPGETFFMCSCSSDECNDNIIFSEEYNTSNPDLLLVIFQ
notes: also called TbRII (isoform II); TβRII isoform 2

How the values were obtained:
active TGFβ1 [1] = target: T1, active TGFβ1 (human, UniProt P01137 279-390); experiment: cell-based or functional assay
T1 construct: mature; also called TGFb1; human active TGFβ1

active TGFβ3 = active TGFβ3 (UniProt P10600); experiment: blocking of active TGFβ3 (1 ng/mL) in solution, 30 min in PBS; free TGFβ3 by ELISA
active TGFβ1 [2] = target: T1, active TGFβ1; experiment: blocking of active TGFβ1 (1 ng/mL) in solution, 30 min in PBS; free TGFβ1 by ELISA

T1 sequence (P01137 279-390 limits assumed): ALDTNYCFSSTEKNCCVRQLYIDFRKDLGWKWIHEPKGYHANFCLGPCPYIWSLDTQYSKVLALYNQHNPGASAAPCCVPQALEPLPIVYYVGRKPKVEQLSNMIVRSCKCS
active TGFβ3, sequence (P10600 301-412): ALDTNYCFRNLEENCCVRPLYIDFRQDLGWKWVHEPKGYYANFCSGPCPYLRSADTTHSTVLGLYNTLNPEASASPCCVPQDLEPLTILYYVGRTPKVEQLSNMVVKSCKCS

Molecule	IC50 values for the inhibition of TGFb1-dependent suppression of CTLL-2 cell proliferation (active TGFβ1 [1])	IC50 (active TGFβ3)	IC50 (active TGFβ1 [2])
FIST (monovalent FIST; fusion protein of an IL-2 polypeptide and a single sTBRII receptor polypeptide)	0.12	3.6 nM	1.29 nM
B1	–	–	0.02 nM
